# Assay results published in patent US20130004493.
# T1: Epithelial membrane protein 2 (EMP2), human, P54851
# T1 chain: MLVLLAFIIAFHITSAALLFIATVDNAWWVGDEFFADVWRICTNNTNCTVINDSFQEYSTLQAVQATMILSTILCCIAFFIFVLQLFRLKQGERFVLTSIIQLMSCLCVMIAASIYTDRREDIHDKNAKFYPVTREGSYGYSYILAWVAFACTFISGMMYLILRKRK
# Target: T1, Epithelial membrane protein 2 (EMP2), …
protein,measurement,value
"Focal adhesion kinase (FAK), human (protein) AAAYLDPNLNHTPNSSTKTHLGTGMERSPGAMERVLKVFHYFESNSEPTTWASIIRHGDATDVRGIIQKIVDSHKVKHVACYGFRLSHLRSEEVHWLHVDMGVSSVREKYELAHPPEEWKYELRIRYLPKGFLNQFTEDKPTLNFFYQQVKSDYMLEIADQVDQEIALKLGCLEIRRSYWEMRGNALEKKSNYEVLEKDVGLKRFFPKSLLDSVKAKTLRKLIQQTFRQFANLNREESILKFFEILSPVYRFDKECFKCALGSSWIISVELAIGPEEGISYLTDKGCNPTHLADFTQVQTIQYSNSEDKDRKGMLQLKIAGAPEPLTVTAPSLTIAENMADLIDGYCRLVNGTSQSFIIRPQKEGERALPSIPKLANSEKQGMRTHAVSVSETDDYAEIIDEEDTYTMPSTRDYEIQRERIELGRCIGEGQFGDVHQGIYMSPENPALAVAIKTCKNCTSDSVREKFLQEALTMRQFDHPHIVKLIGVITENPVWIIMELCTLGELRSFLQVRKYSLDLASLILYAYQLSTALAYLESKRFVHRDIAARNVLVSSNDCVKLGDFGLSRYMEDSTYYKASKGKLPIKWMAPESINFRRFTSASDVWMFGVCMWEILMHGVKPFQGVKNNDVIGRIENGERLPMPPNCPPTLYSLMTKCWAYDPSRRPRFTELKAQLSTILEEEKAQQEERMRMESRRQATVSWDSGGSDEAPPKPSRPGYPSPRSSEGFYPSPQHMVQTNHYQVSGYPGSHGITAMAGSIYPGQASLLDQTDSWNHRPQEIAMWQPNVEDSTVLDLRGIGQVLPTHLMEERLIRQQQEMEEDQRWLEKEERFLKPDVRLSRGSIDREDGSLQGPIGNQHIYQPVGKPDPAAPPKKPPRPGAPGHLGSLASLSSPADSYNEGVKLQPQEISPPPTANLDRSNDKVYENVTGLVKAVIEMSSKIQPAPPEEYVPMVKEVGLALRTLLATVDETIPLLPASTHREIEMAQKLLNSDLGELINKMKLAQQYVMTSLQQEYKKQMLTAAHALAVDAKNLLDVIDQARLKMLGQTRPH","phosphorylation of FAK at Tyr-397, Tyr-407, Tyr-861 and Tyr-925 (quantitative Western blot, ARPE-19/EMP2 against ARPE-19)","EMP2 overexpression enhanced phosphorylation of FAK two- to three-fold at Tyr-397, Tyr-407, Tyr-861, and Tyr-925"
